Data: PMC10326918

Target: Concanavalin A (Canavalia ensiformis)
Assay: native MS; static nESI under native-like conditions, 200 mM ammonium acetate pH 6.8, 5 uM monomer; tetramer [M + 21H]21+ ions (m/z 4901) selected with the quadrupole, then 193 nm UVPD or HCD, read by Orbitrap or orthogonal TOF/TPX3; tetramer dissociates to monomers and trimers

Concanavalin A (natural protein)
stoichiometry N: 4
